# Target: HLA-A2-… complex on cells (human)
# Test: cell-based or functional assay
substance,measurement,value
anti-HLA-A2 antibody BB7.2,"blocking of WT1 Clone 45 CAR-mediated cytotoxicity against …-pulsed DIMT BLCL (51Cr release), antibody at 5 µg/ml",45%

# Reference: patent US20140296492A1
